Molecular target: SARS-CoV-2 HexaPro Spike (SARS-CoV-2, WA-1 / Wuhan-Hu-1 …, UniProt P0DTC2, stabilised, N-linked glycans (built in the model))
Experiment: cryo-EM structure

B1: STI-9167 Fab (therapeutically-modified version of FG-10A3) (Fab, V domains shown)
VH: QVQLVESGGGVVQPGRSLRLSCAASGFTFSSYGMNWVRQAPGKGLEWVAIIWYYGNNKYYVDSVKGRFTISRDNSKNTLYLQMNSLRAEDTAVYYCARKDYSKTYYGYYFDYWGQGTLVTVSS
VL: DIQMTQSPSSLSASVGDRVTITCRASQSIHSFLNWYQQKPGKPPNLLIYAASSLQSGLPSRFSGSGSGTDFTLTISSLQPEDFATYYCQQSYITPPTFGQGTKVEIK
Does B1 bind?
Result: binds

Reference: article doi:10.1101/2023.04.20.537738 (bioRxiv, 2023)
